{"source": "patent US11325945B2", "about": "“Peptide based PCSK9 vaccine” (CADILA HEALTHCARE LIMITED, priority 2017, dated 2022)", "key": {"recombinant human PCSK9": {"target": "T1, recombinant human PCSK9 (Homo sapiens, UniProt Q8NBP7)", "T1 construct": "His; purchased BPS Biosciences", "T1 sequence (Q8NBP7 153-692)": "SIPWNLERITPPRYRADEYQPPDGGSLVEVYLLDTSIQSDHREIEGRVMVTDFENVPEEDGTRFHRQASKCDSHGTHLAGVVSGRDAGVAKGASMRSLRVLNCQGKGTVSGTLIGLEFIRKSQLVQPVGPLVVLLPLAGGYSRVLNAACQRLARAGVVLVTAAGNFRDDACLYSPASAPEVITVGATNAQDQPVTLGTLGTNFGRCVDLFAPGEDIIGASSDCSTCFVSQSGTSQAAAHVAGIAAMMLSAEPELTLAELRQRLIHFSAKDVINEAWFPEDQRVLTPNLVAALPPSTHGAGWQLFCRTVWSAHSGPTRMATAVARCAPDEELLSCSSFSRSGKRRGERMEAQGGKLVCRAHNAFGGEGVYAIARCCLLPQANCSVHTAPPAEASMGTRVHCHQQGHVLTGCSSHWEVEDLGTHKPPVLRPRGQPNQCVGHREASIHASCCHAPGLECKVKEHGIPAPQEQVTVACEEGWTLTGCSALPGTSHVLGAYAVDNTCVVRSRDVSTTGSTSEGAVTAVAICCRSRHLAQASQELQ", "assay": "Affinity of new peptides for recombinant human PCSK9 by surface plasmon resonance (Biacore T200)", "assay_type": "binding", "settings": "SPR, 25° C.", "description": "(§1) Affinity parameters of new peptides for recombinant human PCSK9 were analyzed by surface plasmon resonance (SPR), using a Biacore instrument (Biacore T200, GE Healthcare). SPR experiments were performed at 25° C. with a BIACORE T200 apparatus (GE Healthcare, Uppsala, Sweden).\n(§2) Purified recombinant human PCSK9 (His-tagged, BPS Biosciences) diluted to 100-150 μg/mL in 10 mM acetate buffer, pH 5.0, was immobilized on one of the four flow cells of a Series S Sensor Chip CMS to a level of approximately 6000 to 8000 RU (resonance units) by the use of amine-coupling chemistry. The surface was blocked with 1M ethanolamine, pH 8.5. Whereas one flow cell was immobilized as blank for reference subtraction (no PCSK9). 10 mM Hepes (pH 7.4) with 150 mM NaCl was used as running buffer. The rest two flow cells were saved for future use.\n(§3) 100× Stock solutions of NCE (new peptides) were made in 100% DMSO and were diluted to range of concentrations in 10 mM Hepes, pH7.4+150 mM NaCl so that the final conc of DMSO is kept at 1%. Binding/Kinetics studies were conducted by passing various concentrations of NCEs over blank as well as ligand (protein) immobilized surface. Each cycle consisted of a 60 s or 120 s analyte (diluted small molecule drug) injection at flow rate with between 5 to 30 μL/min (the association phase), followed by a dissociation phase with between 60 to 180 s. If required, regeneration was done using a 30 s (15 μL) injection of 10 mM glycine/HCl (pH 1.5) and 20 s or 30 s (10 or 15 μL) injection of 10 mM NaOH. The data were analyzed using the Biacore T200 Evaluation software. All the curves were reference-subtracted. Baselines were adjusted to zero for all curves and data were presented as binding RU (Average of 5 s window) 5 s before end of sample injection.\nFor KD (equilibrium dissociation constant) determinations analyte curves were subtracted from buffer blank and modeled assuming a simple 1:1 interaction to generate the kinetic data."}, "PCSK9": {"test_system": "PCSK9", "assay": "Immunogenicity study in BALB/c mice: anti-PCSK-9 ELISA antibody titers in serum", "assay_type": "in vivo, mouse", "settings": "peptide formulations, in words", "description": "(§4) Female BALB/c mice of 12-15 weeks of age issued from animal house and kept for […]. Mice had access to food and water ad libitum and were kept under a 12 hrs light/dark cycle. On Day-0 (pre-treatment) animals bled and serum was harvested for total cholesterol measurement. Animals were randomized and grouped to various treatments based on their total cholesterol and body weights. On next day of Day-0 (pre-treatment) blood collection animals were immunised with 0.3 ml of vaccine formulations as mentioned Table No. 1 by subcutaneous or intramuscular route. Next booster injection was given on 2 weeks and 4 weeks after first injection and animals were bled for immunogenicity measurement on two weeks thereafter till week 7 and then every four week till 32 week, detailed schedule of blood collection was Day-0 (pre-treatment) from there 5th, 7th, 20th, 24th, 28th, 32nd, 45th and 57th week after first vaccine administration. Serum was separated and serum total cholesterol was measured and immunogenicity or antibody confirmation was done using ELISA for PCSK9 antibody titer, binding of serum antibodies with human PCSK9 using Surface plasmon resonance (SPR) assay and LDLR-PCSK9 interaction inhibition assay.\nAt specific intervals of time (15 days post immunization with each booster), serum samples were collected from all groups of mice. 96-well ELISA plates (#442402) were pre-coated with PCSK-9 protein 50 ng/well and plate incubated overnight at 2-8° C. Next day, wells were washed to remove unbound protein and blocked in 2% skimmed milk-PB ST for 2 hours, and washed with PBST. Sera samples were diluted 1:20 with 0.2% skimmed milk made in PBST. Appropriate volume of samples and standards was added to each well, and incubated for 1 hour at 37° C. Anti-mouse IgG secondary HRP-labeled antibody was added to each well and incubated at 37° C. for 1 hour, then washed. […] Plates were read at 492 nm on a Spectramax microplate reader. […] By using the negative control value, cut-off value was calculated and the corrected OD's above the cut off value were treated as […]. […]"}, "LDLR-PCSK9 interaction": {"test_system": "LDLR-PCSK9 interaction", "assay": "LDLR-PCSK9 interaction inhibition assay with serum from vaccine treated animals (PCSK9[Biotinylated]-LDLR Binding Assay Kit)", "assay_type": "biochemical", "settings": "peptide formulations, week 5, in words", "description": "as §4\nInhibition of LDLR-PCSK9 interaction by antibody (Ab) in serum from vaccine treated animal were assayed using BPS Bioscience in-vitro PCSK9[Biotinylated]-LDLR Binding Assay Kit (BPS Bioscience, San Diego, Calif., USA) with minor modifications. First, LDLR ectodomain is coated on a 96-well plate and plate was incubated overnight. Next, PCSK9-biotin was diluted in 1×PCSK9 assay buffer to obtain 2.5 ng/μl (50 ng/20 μl) concentration and this master mix, test inhibitor (serum samples from animal studies), inhibitor buffer was added to LDL-R coated plate and incubated at room temperature for 2 hours. Finally, the plate is treated with streptavidin-HRP followed by addition of an HRP substrate to produce chemiluminescence, which was then measured using a chemiluminescence reader according to the manufacturer's instructions. […]"}, "human PCSK9": {"test_system": "human PCSK9", "assay": "Serum antibody detection by affinity determination against human PCSK9 using SPR assay", "assay_type": "binding", "description": "as §1, §2\nas §3, with “Baselines were adjusted to zero for all curves and data were presented as binding RU (Average of 5 s window) 5 s before end of sample injection.” left out\nFemale BALB/c mice of 12-15 weeks of age issued from animal house and kept for 2-3 acclimatization. […] Serum was separated and serum total cholesterol was measured and immunogenicity or antibody confirmation was done using ELISA for PCSK9 antibody titer, binding of serum antibodies with human PCSK9 using Surface plasmon resonance (SPR) assay and LDLR-PCSK9 interaction inhibition assay."}}, "note": "Non-standard residues stand in square brackets, D forms with d. Primed or numbered codes have the meaning given here. No end group written: not given here. 2‑aminophenyl pentanoic acid = 2-Aminophenyl pentanoic acid; Hyp = O=C(O)[C@@H]1C[C@@H](O)CN1; NMeI = CC[C@H](C)[C@H](NC)C(=O)O; hArg = N=C(N)NCCCC[C@H](N)C(=O)O; Cit = NC(=O)NCCC[C@H](N)C(=O)O; Nle = CCCC[C@H](N)C(=O)O; Aib = CC(C)(N)C(=O)O", "data": [{"substance": "6 (SIPWNLE[hArg]ITPC) [compound 6]", "values": [{"measurement": "Binding - Response Unit(RU)", "setting": "recombinant human PCSK9; peptide 50 μM", "value": 6.55, "unit": "RU"}, {"measurement": "Binding - Response Unit(RU)", "setting": "recombinant human PCSK9; peptide 100 μM", "value": 17.50, "unit": "RU"}]}, {"substance": "15 (S[NMeI]IPWNLERITPC) [compound 15]", "values": [{"measurement": "Binding - Response Unit(RU)", "setting": "recombinant human PCSK9; peptide 50 μM", "value": 11.45, "unit": "RU"}, {"measurement": "Binding - Response Unit(RU)", "setting": "recombinant human PCSK9; peptide 100 μM", "value": 29.85, "unit": "RU"}]}, {"substance": "7 (SIPWN[Nle]ERITPC) [compound 7]", "values": [{"measurement": "Binding - Response Unit(RU)", "setting": "recombinant human PCSK9; peptide 50 μM", "value": 6.65, "unit": "RU"}, {"measurement": "Binding - Response Unit(RU)", "setting": "recombinant human PCSK9; peptide 100 μM", "value": 16.00, "unit": "RU"}]}, {"substance": "4 (SIPWNLER[Nle]TPC) [compound 4]", "values": [{"measurement": "Binding - Response Unit(RU)", "setting": "recombinant human PCSK9; peptide 50 μM", "value": 13.05, "unit": "RU"}, {"measurement": "Binding - Response Unit(RU)", "setting": "recombinant human PCSK9; peptide 100 μM", "value": 30.00, "unit": "RU"}]}, {"substance": "19 (SIP[(S)‑2‑amino‑3‑(2′-ethyl-4′-methoxy-(1,1′-biphenyl)-4-yl)propanoic acid]NLERITPC) [compound 19]", "values": [{"measurement": "Binding - Response Unit(RU)", "setting": "recombinant human PCSK9; peptide 50 μM", "value": 35.15, "unit": "RU"}, {"measurement": "Binding - Response Unit(RU)", "setting": "recombinant human PCSK9; peptide 100 μM", "value": 85.90, "unit": "RU"}]}, {"substance": "SIPWN-Nle-ERITPC (SIPWN[Nle]ERITPC) [Seq. ID. No. 7]", "values": [{"measurement": "antibody titers against human PCSK9 as compared to Seq.ID.No.1", "setting": "PCSK9", "value": "higher"}, {"measurement": "LDLR-PCSK9 interaction inhibition compared with Seq. ID No.1", "setting": "LDLR-PCSK9 interaction", "value": "significantly higher"}]}, {"substance": "10 (SIPWN[Aib]ERITPC) [compound 10]", "values": [{"measurement": "Binding - Response Unit(RU)", "setting": "recombinant human PCSK9; peptide 50 μM", "value": 3.00, "unit": "RU"}, {"measurement": "Binding - Response Unit(RU)", "setting": "recombinant human PCSK9; peptide 100 μM", "value": 7.50, "unit": "RU"}]}, {"substance": "14 ([Aib]IPWNLERITPC) [compound 14]", "values": [{"measurement": "Binding - Response Unit(RU)", "setting": "recombinant human PCSK9; peptide 50 μM", "value": 7.10, "unit": "RU"}, {"measurement": "Binding - Response Unit(RU)", "setting": "recombinant human PCSK9; peptide 100 μM", "value": 15.00, "unit": "RU"}]}, {"substance": "1 (SIPWNLERITPC; PCSK9) [compound 1]", "values": [{"measurement": "Binding - Response Unit(RU)", "setting": "recombinant human PCSK9; peptide 50 μM", "value": 7.4, "unit": "RU"}]}, {"substance": "5 (SIPWNLER[Aib]TPC) [compound 5]", "values": [{"measurement": "Binding - Response Unit(RU)", "setting": "recombinant human PCSK9; peptide 50 μM", "value": 2.30, "unit": "RU"}, {"measurement": "Binding - Response Unit(RU)", "setting": "recombinant human PCSK9; peptide 100 μM", "value": 7.10, "unit": "RU"}]}, {"substance": "18 (SIP[2‑aminophenyl pentanoic acid]NLERITPC) [compound 18]", "values": [{"measurement": "Binding - Response Unit(RU)", "setting": "recombinant human PCSK9; peptide 50 μM", "value": 10.20, "unit": "RU"}, {"measurement": "Binding - Response Unit(RU)", "setting": "recombinant human PCSK9; peptide 100 μM", "value": 17.85, "unit": "RU"}]}, {"substance": "8 (SI[Hyp]WNLERITPC) [compound 8]", "values": [{"measurement": "Binding - Response Unit(RU)", "setting": "recombinant human PCSK9; peptide 50 μM", "value": 5.70, "unit": "RU"}, {"measurement": "Binding - Response Unit(RU)", "setting": "recombinant human PCSK9; peptide 100 μM", "value": 13.25, "unit": "RU"}]}, {"substance": "12 (SIPWNLE[Cit]ITPC) [compound 12]", "values": [{"measurement": "Binding - Response Unit(RU)", "setting": "recombinant human PCSK9; peptide 50 μM", "value": 3.10, "unit": "RU"}, {"measurement": "Binding - Response Unit(RU)", "setting": "recombinant human PCSK9; peptide 100 μM", "value": 6.70, "unit": "RU"}]}, {"substance": "13 (SIPWNLERI[Aib]PC) [compound 13]", "values": [{"measurement": "Binding - Response Unit(RU)", "setting": "recombinant human PCSK9; peptide 50 μM", "value": 9.75, "unit": "RU"}, {"measurement": "Binding - Response Unit(RU)", "setting": "recombinant human PCSK9; peptide 100 μM", "value": 37.35, "unit": "RU"}]}, {"substance": "SIPWNLE-Cit-ITPC (SIPWNLE[Cit]ITPC) [Seq. ID. No. 12]", "values": [{"measurement": "antibody titers against human PCSK9 as compared to Seq.ID.No.1", "setting": "PCSK9", "value": "higher"}, {"measurement": "LDLR-PCSK9 interaction inhibition compared with Seq. ID No.1", "setting": "LDLR-PCSK9 interaction", "value": "significantly higher"}, {"measurement": "antibody response (SPR) as compared to Seq.ID.No. 1", "setting": "human PCSK9; week 5, in words", "value": "significantly higher antibody response"}, {"measurement": "antibody response (SPR) as compared to Seq.ID.No. 1", "setting": "human PCSK9; week-57, in words", "value": "significantly higher antibody response"}]}, {"substance": "SI-Hyp-WNLERITPC (SI[Hyp]WNLERITPC) [Seq. ID. No. 8]", "values": [{"measurement": "antibody titers against human PCSK9 as compared to Seq.ID.No.1", "setting": "PCSK9", "value": "higher"}, {"measurement": "LDLR-PCSK9 interaction inhibition compared with Seq. ID No.1", "setting": "LDLR-PCSK9 interaction", "value": "significantly higher"}, {"measurement": "antibody response (SPR) as compared to Seq.ID.No. 1", "setting": "human PCSK9; week 5, in words", "value": "significantly higher antibody response"}]}]}
